# Measured values: the DeepSol protein solubility set
# Assay: soluble on expression in E. coli; label from the status in PepcDB or PDB records
row,Sequence,soluble on expression in E. coli
1,MSPAPELQIPTVTRQSDGTKIHEISGHKFKAVGLAQPTFCSFCSKFIYGVGKQGYKCLGCETVVHKRCHALITARCTFGPSSRAPVPAETTNLKTRRSRSASEEPPSNTHHFNKHFFTRPTFCDHCGSMLYGLTKQGVQCTDCHANVHFRCQEKVLRNCGIQCQ,not soluble
2,MSPDSCPLVKNILLLDSEGKRVAVKYYSDDWPTNAAKLSFEKYVFSKTSKTNARTEAEITLLDSNIIVYKFAQDLHFFVTGGENENELILASVLQGFFDAVALLLRSNVEKMEALENLDLIFLCLDEMVDQGVVLETDPNVIAGKVAMQSTEASGSLSEQTLTQALATAREHLARSLLT,soluble
3,MSPIDQVLAAACALDASGKAPSLALIKSRLGNKFPMPILIQGLQQFKSMPKAERERLAALSIPEVEEQKPTEPVPLSVTTLAAQLTELQKGFEQAIALKNTEIMQLTNELIELKQRVNQLELQGKSV,soluble
4,MSPRSPRHDKILQLVRENGFMPIEELARLLDVTPQTIRRDINQLCEANLLRRYHGGAALGNSVENEDYFARKGKFQSEKAHIADMIARSIPDHASLFMSIGTTIEAVAQALTATHKGLRVITNNIHVASIMSTNPDFTAMITSGTVRASDGGITGVATLDFINQFKVDYAIIGVSGIEPDGSLLDFDYREVRVAQAMMNNARHRYLAADHSKFGRNALVRMGHISEFHTVFTDAAPPEPVTKLLEEHNVRLVLSEALEHHHHHH,soluble
5,MSPSSATPARCSIARTLELLGDKWTLLIVRDAFWGHSRFSEFTRSLGVASDVLTARLAMLVDEGILERRAYRQEGSRERLEYVLTEKGKQLHVVIGALGQFGRDHLPRPGSTSPEYSDETTGEAVSLAFVTDDGRRVSASTLHVQQGTPAPAADPQG,not soluble
6,MSQAELPVLRVAYMPLIDCAPLVAASRLGLDHAYGLQLQLHRQASWAGVRDRLLAGEVDAAHTLASLVYAIDLGVGGPQCPMALLMTLNHNGQAITLAPALAQGVAAGQPLPQVLAEAGRRVVFAQTFPTGTHALWLYYWLAACGVDPMRDVDVVSIPPPQMPEALASGLVDGYCSGEPWAAVAEAQGSGQRVIRSGELWPEHPEKVLACRREFAALQPELSERLTACVLEACRWLDAAPANRAQCAQWLADPDYIGVPAAHLAACLDADAATVSVDPSALAFHRGGAVNMPWLSDGEWFLEQFQRWGWHTLQAADLARLHDIHRLDNYRRAAQRAGVTAPDADRRINRLFDTPAALEHHHHHH,not soluble
7,MSQDPFALLKAEVDLLGRLLGEAIRTLSGERFFALVEEVRALAKARRQGDEAAGEALLARVEGLSTEEAEALVRAFTHYFHLVNLAEERHRVRVNRLRAQAETLESPRPEGFLALAKALKERGLSLEEAEAHLNRLELLLTFTAHPTETRRRTLRHHLEALQRELEAGDRERLAARVALLYGTEEVRKARPTVEDEIKGGLYYLPTTLWEAVPRVVAGLEAALERVYGRRPRLKSPVRFRSWIGGDRDGNPFVTPEVTAFAGRYAREVARRRFLEALEDLVRDLSLAEARVPVPREVRERGEGVERFMGEPYRRYFAALYRALEREEATTEGLLAALKAAERGLREVGLGRVAEAFLDPLEARLSAFGLELAPLDLREESGRLLEAAAELLRVGGVHPDFLALPQEERERLLTEELKTARPLLPVGEAPEGEALRVALGALKAWRDKGAHVVSMTHHPEDLLAVFLLAREVGLYRPGRPLPFDVVPLFETLEDLRRAPGVLRRLLENPVFLAHARGRGGVEVMIGYSDSNKDAGFLMANLALYEAQEALSRVGEEVGLPVYFFHGRGTSTARGGGPAGRAIASLPPRSVGRRIRLTEQGEALADRYSHPDLAVRHLEQMLYHFALAALGPGQEPEARWREALAQAAEESTRRYRALLQEEGFFDFFEAFTPIREIGELPIASRPVYRRGRVRDIRDLRAIPWVMAWTQVRVLLPGWYGLSALEELPLDLLREMYRGWPFFASTLEAAAMALAKADMGVARLYLRLVPEPLRFFYRRLAEEHARTVALLEAVFQAPLLHNQRTLERQIRLRNPYVDPINIVQVELLRRYRAPGGKEDEALRRALLLSILGVAAGLRNAG,soluble
8,MSQEALKAPVVVLGAGLASVSFVAELRQAGYQGLITVVGDEAERPYDRPPLSKDFMAHGDAEKIRLDCKRAPEVEWLLGVTAQSFDPQAHTVALSDGRTLPYGTLVLATGAAPRALPTLQGATMPVHTLRTLEDARRIQAGLRPQSRLLIVGGGVIGLELAATARTAGVHVSLVETQPRLMSRAAPATLADFVARYHAAQGVDLRFERSVTGSVDGVVLLDDGTRIAADMVVVGIGVLANDALARAAGLACDDGIFVDAYGRTTCPDVYALGDVTRQRNPLSGRFERIETWSNAQNQGIAVARHLVDPTAPGYAELPWYWSDQGALRIQVAGLASGDEEIVRGEVSLDAPKFTLIELQKGRIVGATCVNNARDFAPLRRLLAVGAKPDRAALADPATDLRKLAAAVAA,soluble
9,MSQFDLTPPSPAQRDALIAGLSDEEQRVLLHHGTEAPFCGVFLDNKLDGVYTCRLCGLPLFRSNAKFDSGTGWPSFFAPYDPAHVREIRDTSYGMVRTEIVCARCDSHLGHVFPDGPPPTGERHSLNSVSLAFTEDGQPLPNPLQRAGAETQPA,soluble
10,MSQGHRDAGAAACRTIIVTNHCPPIMRKRDIWRVDQFHLLRKVGSGYASTVYLGTCRTSGNQVAVKLYHKQKLSELNHFQVAREITIHSSLDHKNIIQLWAAFEDQYGIYLVFEYASKGDVFTEVERRGGQLDEAETVRAVVYPFLSALDYLHSRCIIHRDIKPENLLFTATGVLKVADFGLSINFSQERPVTRVGTLDYMAPEVVVCPDKHRPQDHKELKHLHYTPLVDAWAVGVLAYELIVGRPPFDKGQKKATIAEILNSEPFIPPWLSEGATHFIRWSLTKEVGKRPSVQQLAEHPWIVSHMKQSVLAPARRQLVKTDSFVEPRQLGFRGSNAPGAGEPSGPSKEPPRPLQVSSVAQGGRFLGHSSSMSAMDGMRYRDIHLDSVTGGMASAATEALKSVKRVSDGDGTTGGRPSAAGGRVSRAGTARNSGTGQAPLSRMNSMSAQAVVAAAAAAMASGSFGGAAHGSEDSPKGGRALTREELYASLTAPLGGRGSPVLARSFTAGRASPAPQQMAPLPTNAGRKSGGGGLGSGRSSLSGQATGAPPSRGAAELAHDLSRLRVDSAASGGGGAAGPSTSASGAVPYSPGKGSSGIRPSPPQAPSPTARGLRTGSPLIPSRLSQSFTSPVSPLAAGSNASAGTPHLSRLGKTSNSGIVPAVATANTPGSARPPAGMDAHSSAASSAAAAGAQSSPHQPAAAAAGSSLTVSTTPASPGGSSGYGQTRASPRELPGERDPELEDSEVEDEPETERSPSKSKSLFKKIFS,not soluble
11,MSQIMYNYPAMLGHAGDMAGYAGTLQSLGAEIAVEQAALQSAWQGDTGITYQAWQAQWNQAMEDLVRAYHAMSSTHEANTMAMMARDTAEAAKWGG,not soluble
12,MSQKRSLVFAIRDFPPGCGTHIDVSSSLNHPAEKAFKHPRTGDVSGENLSFAEAKPEGTCLKRESADQDHIFAAPEHNAKREPAGQDHVVAATTVAYATSSHRQKVEIGNSDCDPTPREKVLEVLSLFKQVYNQLDRDKKARRGGDFLDATSRIDLKTLTVLEKMGKQVNTEKRIGSVPGINIGDVFQYKTELRVVGLHSKPMCGIDYIKLGDDRITTSIVASEGYGYNDTYNSGVMVYTGEGGNVINKQKKTEDQKLVKGNLALATSMRQKSQVRVIRGEERLDRKGKRYVYDGLYMVEEYWVERDVRGKSVYKFKLCRIPGQLPLT,not soluble
13,MSQLMNAHDRRNEPAPNAPPEFQLQNRTRPAPTPIEYITLSSDDEIEVIPPPPKRAKMMEEQKPKDLLENPQLPEVPSSSASFVIPQIVVDNEEVPEDPRMKTPSPIQGASVAMPVRARIQESPKVSRDPTPLSRASSVVIPEVPAVSEPEPLPVEVLAISIPTTSPDTAPSTSSSVETVESVTEVVAISSAEASSDAPARSPLKKKVANSVKPVVLPSRKSTRNKKDMNQIKEDEELVSNFNNGIGVISRGTIVPRGLSRTPFHFKKEATDDKAGKVKDMLKIDMQPVFTPAGHSSKDLIKRKARNSLEPSTSDADISFMKNERGKIRTGEKFQATIPDIEPSSTLTEYMDQEDKEEIFWETLDMDKDNLEESKKFHETLRNVYWRAIWRQFQGHIPFETALQHLMKNNLDFAQSLETIDENLKSLPQSFKEPCVAQVKIFDKLLQDKKTTRRQLQEKAMRNYHIAEVQQYHYRFRKFFKYQEKYGVVCNCAEKLCNNLKFEPRYGCTNCKKNVKSSSDHGATEKLCLICQTYQKLTGNVRPARNVEFCDDELEKIYHWSQKEEDLNRTLSREEFEELVREEKNKKWKNNDLSAEETAMLNQKELRIPNRRHRTHLSDQEKQARGEKICAQLQPYVLPHFSKCNCKRMGRSSWRCETEGKSSFSIQERKDYFREVRDCKGDLQQVARNLKVAPEVVRAFINIYGIEYDLEIYFPNKKLPNLIPIVYDIPPSNLPPIIPDGSSNSSSRDGSPYIPPEERSPKKRRSN,not soluble
14,MSQLQEMMTVVSQREVAYNIFEMVLKGTLVDEMDLPGQFLHLAVPNGAMLLRRPISISSWDKRAKTCTILYRIGDETTGTYKLSKLESGAKVDVMGPLGNGFPVAEVTSTDKILIIGGGIGVPPLYELAKQLEKTGCQMTILLGFASENVKILENEFSNLKNVTLKIATDDGSYGTKGHVGMLMNEIDFEVDALYTCGAPAMLKAVAKKYDQLERLYISMESRMACGIGACYACVEHDKEDESHALKVCEDGPVFLGKQLSL,soluble
15,MSQPIYKRILLKLSGEALQGEDGLGIDPAILDRMAVEIKELVEMGVEVSVVLGGGNLFRGAKLAKAGMNRVVGDHMGMLATVMNGLAMRDSLFRADVNAKLMSAFQLNGICDTYNWSEAIKMLREKRVVIFSAGTGNPFFTTDSTACLRGIEIEADVVLKATKVDGVYDCDPAKNPDAKLYKNLSYAEVIDKELKVMDLSAFTLARDHGMPIRVFNMGKPGALRQVVTGTEEGTTICLEHHHHHH,not soluble
16,MSQPLTTNSVLVEEAAADGDSSAAAPPLFDYHRIDQKLLQNIVYDALVWSTLNCLLVGDKSVQRSGRVPGVGLVHLPLSLLPGPFPESHWKQGCELAPIFNELVDRVSLDGKFLQESLSRTKNADEFTSRLLDIHSKMLQINKKEDIRMGIVRSDYMIDEKTKSLLQIEMNTISTSFALIGCLMTGLHKSLLSQYGKFLGLNSNRVPANNAVDQSAEALAKAWSEYNNPRAAILVVVQVEERNMYEQHYISALLREKHHIRSIRKTLTEIDQEGKILPDGTLSVDGQAISVVYFRAGYTPKDYPSESEWRARLLMEQSSAIKCPTISYHLVGTKKIQQELAKPGVLERFVENKDHIAKLRACFAGLWSLEDSDIVKKAIENPELFVMKPQREGGGNNIYGDELRETLLKLQEAGSQEDAAYILMQRIFPATSPAILVRDGNWDTGHVISEAGIFGTYLRNKDKIIINNESGYMVRTKISSSYEGGVLPGFGVVDTVYLT,soluble
17,MSQQGLERRLLAGLQGLGLTINQAQRAVKHFGADALDRLEKDLFTLTEVEGIGFLTADKLWQARGGALDDPRRLTAAAVYALQLAGTQAGHSFLPRSRAEKGVVHYTRVTPGQARLAVETAVELGRLSEDDSPLFAAEAAATGEGRIYLPHVLRAEKKLASLIRTLLATPPADGAGNDDWAVPKKARKGLSEEQASVLDQLAGHRLVVLTGGPGTGKSTTTKAVADLAESLGLEVGLCAPTGKAARRLGEVTGRTASTVHRLLGYGPQGFRHNHLEPAPYDLLIVDEVSMMGDALMLSLLAAVPPGARVLLVGDTDQLPPVDAGLPLLALAQAAPTIKLTQVYRQAAKNPIIQAAHGLLHGEAPAWGDKRLNLTEIEPDGGARRVALMVRELGGPGAVQVLTPMRKGPLGMDHLNYHLQALFNPGEGGVRIAEGEARPGDTVVQTKNDYNNEIFNGTLGMVLKAEGARLTVDFDGNVVELTGAELFNLQLGYALTVHRAQGSEWGTVLGVLHEAHMPMLSRNLVYTALTRARDRFFSAGSASAWQIAAARQREARNTALLERIRAHLEHHHHHH,soluble
